# Results published in paper PMC7229144, “Tetracycline-inactivating enzymes from environmental, human commensal, and pathogenic bacteria cause broad-spectrum tetracycline resistance” (Communications Biology, 2020).
# What was measured:
# Tet(X7) [1] = target: T1, Tet(X7) (human gut metagenome, UniProt Z9HWK3IZF4); format: binding; conditions: FAD in IN-conformation
# [2] = system: CN(C)[C@@H]1C(=O)C(C(N)=O)=C(O)[C@@]2(O)C(=O)C3=C(O)c4c(O)c(NC(=O)CN5CCCC5)cc(F)c4C[C@H]3C[C@@H]12; test: purified protein; conditions: 0-40 µM substrate, 504 µM NADPH, 5.04 mM MgCl2, 0.4 µM enzyme, 100 mM TAPS pH 8.5, room temperature
# [3] = system: CN(C)c1cc(CNCC(C)(C)C)c(O)c2c1C[C@H]1C[C@H]3[C@H](N(C)C)C(=O)C(C(N)=O)=C(O)[C@@]3(O)C(=O)C1=C2O; test: purified protein; conditions: 0-40 µM substrate, 504 µM NADPH, 5.04 mM MgCl2, 0.4 µM enzyme, 100 mM TAPS pH 8.5, room temperature
# [4] = system: CN(C)c1cc(NC(=O)CNC(C)(C)C)c(O)c2c1C[C@H]1C[C@H]3[C@H](N(C)C)C(=O)C(C(N)=O)=C(O)[C@@]3(O)C(=O)C1=C2O; test: purified protein; conditions: 0-40 µM substrate, 504 µM NADPH, 5.04 mM MgCl2, 0.4 µM enzyme, 100 mM TAPS pH 8.5, room temperature
# Tet(X7) [5] = target: T1, Tet(X7); test: absorbance, initial velocity of tigecycline degradation; format: biochemical; conditions: read-out: IC50 (apparent)
# T1 sequence (Z9HWK3IZF4 21-399 limits assumed): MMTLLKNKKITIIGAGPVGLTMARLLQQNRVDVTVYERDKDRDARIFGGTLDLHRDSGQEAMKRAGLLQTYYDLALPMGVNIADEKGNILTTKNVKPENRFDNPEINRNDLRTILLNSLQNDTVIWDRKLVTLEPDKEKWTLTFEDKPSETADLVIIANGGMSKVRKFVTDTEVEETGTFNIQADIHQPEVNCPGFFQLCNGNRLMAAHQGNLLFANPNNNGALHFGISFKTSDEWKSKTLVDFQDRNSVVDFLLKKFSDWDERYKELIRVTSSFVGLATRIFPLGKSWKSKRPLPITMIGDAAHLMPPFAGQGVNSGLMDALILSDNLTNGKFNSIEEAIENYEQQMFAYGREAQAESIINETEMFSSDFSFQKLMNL
molecule,measurement,setting,value
Cc1cc2nc3c(=O)[nH]c(=O)nc-3n(C[C@H](O)[C@H](O)[C@H](O)COP(=O)(O)OP(=O)(O)OC[C@H]3O[C@@H](n4cnc5c(N)ncnc54)[C@H](O)[C@@H]3O)c2cc1C [FAD],"X-ray crystal structure, 2.55 Å",Tet(X7) [1],The FAD in Tet(X7) retains an IN-conformation
Tet(X7) (uncultured bacterium),Km,[2],6 ± 1 µM
same,Km,[3],4 ± 0.4 µM
same,kcat,[3],0.0033 ± 0.0001 s⁻¹
same,Km,[4],4 ± 0.4 µM
same,kcat,[4],0.005 ± 0.00017 s⁻¹
CN(C)[C@@H]1C(=O)C(C(N)=O)=C(O)[C@@]2(O)C(=O)c3c(cc4c(Cl)ccc(O)c4c3O)C[C@@H]12 [anhydrodemeclocycline],IC50,Tet(X7) [5],0.26 ± 0.04 µM
Cc1c2c(c(O)c3c(O)cccc13)C(=O)[C@]1(O)C(=O)C(C(N)=O)=C(O)[C@@H](N(C)C)[C@@H]1C2 [anhydrotetracycline],IC50,Tet(X7) [5],1.06 ± 0.108 µM
